No end group written: not given here.
Assay: Solubility of protein polymers
Format: physicochemical
From the text: In order to both increase solubility of the protein backbone in organic solvents and to include a better enzymatic transglutaminase substrate for conjugation to chelators, a phenylalanine amino acid (F) will be added to the random coil backbone, resulting in GFKAGTGSA (SEQ ID NO: 4). It is contemplated that this protein structure will not form a particular secondary structure, behaving as a random coil in an aqueous solution. As indicated by the monomer sequence, the lysines are spaced every nine amino acids, which is still an optimal interval for a high concentration of Gd chelators, but still allowing enough room to prevent steric hindrance. […] It is contemplated that proteins including various amounts of leucines, a hydrophobic residue that is high on the hydropathy scale, provides novel protein polymers useful in the present invention that are both water and organo-soluble.
However, a protein soluble in organic solvents would allow coupling in N-methyl-pyrrolidone (NMP) using a peptide coupling agent such as Bromo-tris-pyrrolidinophosphoniumhexafluorophosphate (PyBroP) or 2-(IH-7-Azabenzotriazol-1-yl)-1,1,3,3-tetramethyluroniumhexafluorophosphate Methanaminium (HATU) in diisopropylethylamine (DIEA). Two equivalents of the chelator and at least 2:1 equivalents of the peptide-coupling agent will be used for each lysine site. […]

GFKAGTGSA: protein polymer with monomer GFKAGTGSA (SEQ ID NO: 4), phenylalanine added to the random coil backbone (also: repeated monomer polymer)
solubility in water: only soluble in water at high pH
solubility in organics (organic solvents): not soluble in organics

From US8021646B2, “Compositions and methods for magnetic resonance imaging contrast agents” (Northwestern University, priority 2006, dated 2011)
